According to patent publication US20110275122A1 (Amgen, published 2011):

T1: c-mpl receptor (Homo sapiens (Human), UniProt P40238 26-491, The MPL used for panning was biotinylated; the biotin site is not stated and is not carried by the letters.)
T1 construct: also called TPO receptor
T1 sequence: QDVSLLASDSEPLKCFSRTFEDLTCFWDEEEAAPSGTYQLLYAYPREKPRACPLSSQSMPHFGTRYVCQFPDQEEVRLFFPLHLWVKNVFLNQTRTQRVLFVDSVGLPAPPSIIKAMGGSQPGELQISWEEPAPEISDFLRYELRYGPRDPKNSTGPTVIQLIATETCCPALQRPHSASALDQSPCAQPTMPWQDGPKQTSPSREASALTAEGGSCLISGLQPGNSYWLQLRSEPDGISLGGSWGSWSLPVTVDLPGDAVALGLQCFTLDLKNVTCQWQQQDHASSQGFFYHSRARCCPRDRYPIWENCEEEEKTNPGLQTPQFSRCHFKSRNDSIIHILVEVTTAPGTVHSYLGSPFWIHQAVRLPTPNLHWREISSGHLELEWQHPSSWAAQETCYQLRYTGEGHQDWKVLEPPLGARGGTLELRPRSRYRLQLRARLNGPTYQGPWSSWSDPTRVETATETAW

T2: human mpl receptor (human, UniProt P40238 26-635)
T2 sequence (looked up): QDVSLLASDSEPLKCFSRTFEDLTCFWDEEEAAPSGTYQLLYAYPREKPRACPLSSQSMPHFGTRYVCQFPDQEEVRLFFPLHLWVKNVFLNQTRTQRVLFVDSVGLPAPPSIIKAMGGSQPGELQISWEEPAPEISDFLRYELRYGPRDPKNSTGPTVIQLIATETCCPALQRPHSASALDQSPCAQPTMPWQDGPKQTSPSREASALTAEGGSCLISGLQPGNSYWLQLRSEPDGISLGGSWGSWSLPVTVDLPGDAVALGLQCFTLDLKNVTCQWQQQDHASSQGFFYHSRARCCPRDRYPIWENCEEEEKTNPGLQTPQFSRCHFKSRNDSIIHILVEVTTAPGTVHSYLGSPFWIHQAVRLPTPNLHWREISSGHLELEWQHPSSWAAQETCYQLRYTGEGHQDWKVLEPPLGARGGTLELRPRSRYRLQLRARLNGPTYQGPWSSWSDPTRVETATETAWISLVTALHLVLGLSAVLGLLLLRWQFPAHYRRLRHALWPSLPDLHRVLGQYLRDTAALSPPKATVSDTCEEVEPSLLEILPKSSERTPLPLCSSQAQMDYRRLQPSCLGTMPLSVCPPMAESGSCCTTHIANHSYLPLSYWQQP

B1: SEQ ID NO: 326 (peptide)
peptide: IEGNYWFWQQVGQENTLSREWIQTLGQKYWYRPPSICAQIEGWSRHQHYSAMSGHS
B2: Fc-Loop (Asym) (SEQ ID NO: 9) (Fc fusion)
chain: MDKTHTCPPCPAPELLGGPSVFLFPPKPKDTLMISRTPEVTCVVVDVSHEDPEVKFNWYVDGVEVHNAKTKPREEQYNSTYRVVSVLTVLHQDWLNGKEYKCKVSNKALPAPIEKTISKAKGQPREPQVYTLPPSRDELGGGGQGCSSGGPTLREWQQCRRMQHSGGTKNQVSLTCLVKGFYPSDIAVEWESNGQPENNYKTTPPVLDSDGSFFLYSKLTVDKSRWQQGNVFSCSVMHEALHNHYTQKSLSLSPGK
B3: Fc-Loop (Asym) (SEQ ID NO: 243) (Fc fusion)
chain: MDKTHTCPPCPAPELLGGPSVFLFPPKPKDTLMISRTPEVTCVVVDVSHEDPEVKFNWYVDGVEVHNAKTKPREEQYNSTYRVVSVLTVLHQDWLNGKEYKCKVSNKALPAPIEKTISKAKGQPREPQVYTLPPSRDELGGGGQGCSSGGPTLREWQQCVRMQHSGGTKNQVSLTCLVKGFYPSDIAVEWESNGQPENNYKTTPPVLDSDGSFFLYSKLTVDKSRWQQGNVFSCSVMHEALHNHYTQKSLSLSPGK
B4: Fc-Loop (Sym) (SEQ ID NO: 9) (Fc fusion)
chain: MDKTHTCPPCPAPELLGGPSVFLFPPKPKDTLMISRTPEVTCVVVDVSHEDPEVKFNWYVDGVEVHNAKTKPREEQYNSTYRVVSVLTVLHQDWLNGKEYKCKVSNKALPAPIEKTISKAKGQPREPQVYTLPPSRDELGGQGCSSGGPTLREWQQCRRMQHSGGTKNQVSLTCLVKGFYPSDIAVEWESNGQPENNYKTTPPVLDSDGSFFLYSKLTVDKSRWQQGNVFSCSVMHEALHNHYTQKSLSLSPGK
B5: Fc-Loop (Sym)(SEQ ID NO: 244) (Fc fusion)
chain: MDKTHTCPPCPAPELLGGPSVFLFPPKPKDTLMISRTPEVTCVVVDVSHEDPEVKFNWYVDGVEVHNAKTKPREEQYNSTYRVVSVLTVLHQDWLNGKEYKCKVSNKALPAPIEKTISKAKGQPREPQVYTLPPSRDELGGQGCSSGGPTLREWQQCRRAQHSGGTKNQVSLTCLVKGFYPSDIAVEWESNGQPENNYKTTPPVLDSDGSFFLYSKLTVDKSRWQQGNVFSCSVMHEALHNHYTQKSLSLSPGK
B6: Fc-Loop (Sym) (SEQ ID NO: 243) (Fc fusion)
chain: MDKTHTCPPCPAPELLGGPSVFLFPPKPKDTLMISRTPEVTCVVVDVSHEDPEVKFNWYVDGVEVHNAKTKPREEQYNSTYRVVSVLTVLHQDWLNGKEYKCKVSNKALPAPIEKTISKAKGQPREPQVYTLPPSRDELGGQGCSSGGPTLREWQQCVRMQHSGGTKNQVSLTCLVKGFYPSDIAVEWESNGQPENNYKTTPPVLDSDGSFFLYSKLTVDKSRWQQGNVFSCSVMHEALHNHYTQKSLSLSPGK

Legend:
c-mpl receptor = target: T1, c-mpl receptor; experiment: phage-ELISA
human mpl receptor [1] = target: T2, human mpl receptor; experiment: cell-based or functional assay
human mpl receptor [2] = target: T2, human mpl receptor; experiment: cell-based or functional assay; remark: listed apart in the source

Binder	Relative activity (c-mpl receptor)	EC50 on 32Dc123/Mpl (human mpl receptor [1])	In vitro EC50 (human mpl receptor [2])
IEGWQEGRQSAARA [SEQ ID NO: 324]	13.8		
B1	13.2		
IEGWIWRQWLMQTLWHS [SEQ ID NO: 321]	16.4		
IEGPTFKQWQRWLKYHS [SEQ ID NO: 325]	13.5		
IEGPTFKQWQKLRLGHS [SEQ ID NO: 319]	17.9		
IEGPTLHEWLALLRSHS [SEQ ID NO: 333]	80.7		
IEVWQSHWYQAARALESTSSRLLPMRPPPSICAQIEGPTLPQRMAARA [SEQ ID NO: 316]	24.9		
IEGPTFKQWQKWRLSHS [SEQ ID NO: 323]	14.7		
IEGPTFKQWQRLRKNHS [SEQ ID NO: 329]	12.1		
B2		0.013 nM	0.0127 nM
B3		0.006 nM	0.0057 nM
IEGPTFKQWQLMGFPHS [SEQ ID NO: 320]	17.8		
IEGLLSQLWQAARA [SEQ ID NO: 330]	7.11		
IEGPTLHEWLAERRKHS [SEQ ID NO: 332]	88.4		
IEGPTLHEWLAQRREHS [SEQ ID NO: 334]	75.9		
IEGPTLHEWLRQRRQHS [SEQ ID NO: 336]	64.5		
B4		0.015 nM	0.0137 nM
B5		0.012 nM	
B6		0.01 nM	0.0099 nM
IEGPTFKQWQALRKRHS [SEQ ID NO: 318]	21.6		
IEGPTFKQWQLWRLQHS [SEQ ID NO: 327]	12.6		
IEGPSLPEWLHVWRHHS [SEQ ID NO: 331]	117		
IEGPTFKQWQAMRKNHS [SEQ ID NO: 322]	16.4		
IEGPTLHEWLLYRRAHS [SEQ ID NO: 335]	73.7		
